Assay results: patent publication US10369187B2, “Peptide regulators of JNK family kinases” (Vanderbilt University, priority 2017, dated 2019)
Entries after “also recorded” stand apart in the source; their conditions may differ.

Assays:
[1] = target: T1, MKK4 (Homo sapiens, UniProt P45985); assay: MBP pull-down of purified MKK4; format: binding; conditions: for binding of MKK4 in MBP pull-down: purified GST-MKK4, peptide as MBP-fusion immobilized on amylose
T1 sequence (P45985 1-399): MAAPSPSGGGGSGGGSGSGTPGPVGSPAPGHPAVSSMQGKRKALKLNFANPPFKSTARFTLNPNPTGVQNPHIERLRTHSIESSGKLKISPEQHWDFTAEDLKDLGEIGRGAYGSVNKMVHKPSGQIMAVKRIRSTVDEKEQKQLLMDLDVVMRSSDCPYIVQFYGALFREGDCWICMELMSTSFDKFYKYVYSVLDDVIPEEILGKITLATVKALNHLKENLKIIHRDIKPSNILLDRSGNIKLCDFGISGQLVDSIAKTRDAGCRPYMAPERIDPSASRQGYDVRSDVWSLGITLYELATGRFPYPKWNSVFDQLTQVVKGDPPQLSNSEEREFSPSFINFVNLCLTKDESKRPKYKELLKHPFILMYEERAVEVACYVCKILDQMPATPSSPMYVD
Description: (§1) T1A was expressed in E. coli as an MBP-fusion and purified it on an amylose column^23. The ability of purified GST-MKK4 or GST-MKK7 (FIG. 1A) to bind MBP-T1A immobilized on an amylose column was tested in an in vitro pull-down assay, where MBP and MBP-arrestin-3 served as negative and positive controls, respectively (FIG. 1B). MBP-T1A, but not control MBP, effectively retained both kinases (FIG. 1B). […] Next, it was tested whether T1A binds the uppermost kinase in the cascade, ASK1. Because ASK1 is not available in purified form, HA-tagged ASK1 and YFP-tagged T1A (using YFP as a control) were co-expressed in COS7 cells, lysed the cells, and immunoprecipitated YFP constructs with anti-GFP antibody (FIG. 1C).
To make MBP-fusions containing arrestin-2/3 elements, the cDNAs encoding arrestin fragments were subcloned into pMal-p2T (generous gift from Dr. Keiji Tanaka, Tokyo Institute of Medical Science) between Eco RI and Xho I sites in frame with MBP, as described^23. MBP-Arr3 (full-length arrestin-3) was created by subcloning the corresponding cDNA into pMal-p2T between Eco RI and Not I sites^23. All MBP-arrestin-3 fusion proteins contained the same […] (SEQ ID NO:29) linker between MBP and arrestin-3 or its fragments. The MBP protein used as negative control was purified using empty pMal-p2T vector containing the same linker with 10 additional residues: […] (SEQ ID NO:30). MBP fusions were purified, as described^23. MBP pull-down was performed, as described^23. Briefly, Indicated MBP fusions (10-30 μg in 50 μL 20 mM Tris/150 mM NaCl) were immobilized on amylose resin (25 μL, 50% slurry, New England Biolabs) for 1 h at 4° C. with slight rotation. Purified, as described^40, MKK4/7 (10 μg in 50 μL 20 mM Tris/150 mM NaCl) were added to the immobilized MBP fusions and rotated gently for 2 h at 4° C. Samples were transferred to centrifuge filters (Durapore®-PVDF-0.65 μm), washed three times with 50 mM HEPES-Na, pH 7.3, 150 mM NaCl. The proteins were eluted by 100 μl of elution buffer (wash buffer containing 50 mM maltose) by gentle rotation for 5 min at 4° C. Eluates were analyzed by SDS-PAGE and Western blotting.

[2] = target: T2, MKK7 (Homo sapiens, UniProt O14733); assay: MBP pull-down of purified MKK7; format: binding; conditions: purified GST-MKK7; peptide as MBP-fusion immobilized on amylose
T2 sequence (O14733 1-419): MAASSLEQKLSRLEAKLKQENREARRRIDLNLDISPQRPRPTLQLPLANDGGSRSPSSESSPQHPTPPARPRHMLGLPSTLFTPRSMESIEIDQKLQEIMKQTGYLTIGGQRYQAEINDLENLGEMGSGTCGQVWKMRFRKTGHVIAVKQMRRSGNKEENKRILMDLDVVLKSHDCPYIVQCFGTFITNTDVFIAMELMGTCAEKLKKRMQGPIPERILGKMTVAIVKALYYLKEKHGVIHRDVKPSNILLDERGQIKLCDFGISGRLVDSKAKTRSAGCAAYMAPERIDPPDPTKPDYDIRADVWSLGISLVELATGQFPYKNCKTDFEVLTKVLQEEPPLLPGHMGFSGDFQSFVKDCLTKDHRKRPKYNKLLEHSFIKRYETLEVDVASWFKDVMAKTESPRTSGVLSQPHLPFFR
Description: as §1
To make MBP-fusions containing arrestin-2/3 elements, the cDNAs encoding arrestin fragments were subcloned into pMal-p2T (generous gift from Dr. Keiji Tanaka, Tokyo Institute of Medical Science) between Eco RI and Xho I sites in frame with MBP, as described^23. MBP-Arr3 (full-length arrestin-3) was created by subcloning the corresponding cDNA into pMal-p2T between Eco RI and Not I sites^23. All MBP-arrestin-3 fusion proteins contained the same […] (SEQ ID NO:29) linker between MBP and arrestin-3 or its fragments. […] Eluates were analyzed by SDS-PAGE and Western blotting.

Substance | binding of MKK4 in MBP pull-down [1] | binding of MKK7 in MBP pull-down [2] | interaction with MKK4 compared with MKK7 ([1]; MBP pull-down, purified proteins)
MGDK-GTRVFKKASPNGKLTVYLGK (MGDKGTRVFKKASPNGKLTVYLGK; N-terminal MGDK; bovine) [B1A, homologous N-terminal peptide from arrestin-2, negative control] | comparably bind MKK4 | less robust interaction | –
MGEKPGTRVFKKSSPNCKLTVYLGK (bovine) [T1A, first 25 residues of arrestin-3] | binds both MKKs; also recorded: comparably bind MKK4 | binds both MKKs | stronger interaction with MKK4 than with MKK7
